# Results taken from the DeepSol protein solubility set.
# Assay: soluble on expression in E. coli; label from the status in PepcDB or PDB records
row,Sequence,soluble on expression in E. coli
1,MSLCDRSEVGDVSLGMFTLKDIKINNLTDPVVTGVTCHVASIEADLSLADPSDSSISCRQTGEITPEMIAQIDKSSSGEVVFQKSKSIFFKSMKIRRIFDAKNQTLMYLSYSTKETSGSFKHSLSTVPLWGTQAYNAFPETQNKEGHHHHHH,soluble
2,GPGSMTTAASEGIVSREQLQMMLHVILHSTDNNERRNVEKSVVQLLTTPSTLTLLMVMLRDVQGSSPGVRQLAAVLLRKKVLSLWRTIPSESRGDFKGALLEQLGCEPVKAVRLALAHLVTRVAKADAMDEDGGWPELNYAIRAAVIDPRAEMRELAMVLAYSVAEVMSEADTHCLPVVEAVLQGMLDSEDAVQRSAVKAVGTLFVFMRGQTKVWEQLLQQLVPQCLALLTKCGTEETKTNLCVDVLDLLEQLVEDLSVKKHGALLRSVALEVLSVMTNGAIQPRVRQSCAEVLASLVNQKPKFVSTTVLEPLVSACVQVMSEDNAISLPEVAHTEGMENCDDSQSDENDAADMLHVDPPCLFAGRLLSTIATKVAAKSFTGALLPLISPVAQSPQAVGPTGAKSFDPRSCLFGRG,not soluble
3,MGSDKIHHHHHHMLGKGVVDYTREGSILSAEQRRFYEKNGYLLIRNCVPQYELNRFRQRFQDICEKKVKAPENMTVMKDISIAKSEFKDGEKAITKIQDFADDPVLFEYCKYPGVVDVVKDLIGNPKSNLMAMHTMLINKPPDNGKLTSRHPMHQDLQYFPFRPADFICCAWTAMEKITRANGCLVVVPGTHKGVLLPHEYPKWEGGVNKAYHGIQDYDTSTPRIHVEMEPGDTVFFHPILIHGSGANRTEGFRKAISCHYANDDLCRYVNVEGTTQETLAEEIIEIAKKRLTRYGLDPNTVTLDFADIWRVRAREVNGRRSNL,not soluble
4,MSTPSHLNAQPLVWGHGPRTFEVFLEPTCPYSVRAFNKLDDLLDEVGADNVTIKIRLQSQPWHLFSGVIVRCILAASTLPHGREQAHKVMQAVADHREEFEFTDHCSGPNMNATPQQIIERIERYSHVLLGAAFARPELQDVIKWHSKYARQNGIHVSPTFMVNGLVQPDLGSGDDVSVWAARIMA,not soluble
5,MNIITLKVAIVEPLPMIRAGLEALLKKITGYKIQFIDAPADNGWVDVISFYCPDVVFMNPLVSGLTRNESDKACPQSRYVGLLTTPIDSNMLHNYDDTLSVHATVEELKQLLERLYQKTLEPEESGEEQQTLTNREKEIVVGVVKGMTNKEIAEELFLSTHTVITHRRNIAKKLQIHSPSGLTIYAIMNKLVNLDEIAH,not soluble
6,MTCVGDIMLAGSATPTLSRSGYDYPFAKTAQELRRGDIAMGNLEAPLTERGTEYRDKTYRFRTNPIAAAALKRAGFSVLTLANNHMMDYGNEGLQDTLATLSRHGIAHTGAGASLAEARREAVVSVRGKRIAFLAYSLTFPSEFYAGPNRPGTAPGYAPHVREDIRRAKAEADYVVVSFHWGAERAEFPKQYQTETARLAIDAGADAIIGHHPHVLQGIEFYRGKPILYSLGNFAFGSRSTAADRSVMARLTLSDEETSVELVPLNVLHRETRYQPGILAGRKGAEVIERLNRLSQPFGTVISGSAGRFRARTSGADQRIATRLEHHHHHH,not soluble
7,MNRMMALVMAGGRGTRLAIDCEKPLLEVAGRPMIDHVLEALESATGVDGIIVVTSPHTPMTEDHVRGRHPIFRASGGGYVEDLREVLSHLEESYHEPLLVINSDLPLVRPSTIDWIISSYHSCPEPAMCVAVPDDLCRRHGLDFSGSLDGLVPCGVNILMSKNRVQEQRILEASMLELAVNINSCRDLKVLEKILGEIDGREEAHKRGREVLELEHHHHHH,soluble
8,MSLTDAILYELHIRDATIHPGSGVSKKGTYKGLMEEGTTGRNGTLTGLSHIKDLGVTHVELLPLYCFGGVDEANPSSAYNWGYNPLYYNAPTGYYATNPSDPYNRIVECKQLIETFHEHGIRVIIDVVYNHVYERELSSFEKLVPGYYFRHGENGMPSNGTGVGNDIASERKMMRKFIVESILYWLTEYNVDGFRFDLMGILDVDTINIIEKEVRNIKRDALLLGEGWDLQTPLPLEEKATLNNAKKMPHIAQFNDQFRDGIKGSTFHINKRGFAFGGYVDCNHLQYIASGSLLSMKETGLFLEPVQSINYVECHDNMTMWDKLMRSNEESEEILKKRHLLATAMVILSQGIPFLHAGQEFYRTKQGNENSYNANDEINQLDWDRKEKEIETVNYIKGLIAIRKEHGAFRLQNADLIKKHMTFLQTSPEVLAYHLEHVESFGPWKEIVVLFNSSLEAKTVQLPKEETWHVLVNEKQAKIEPISSFRGKELRLAPISTYILTIMEGHHHHHH,not soluble
9,SLRETVFRNARVLDVARGAYDDGQSVVVRDGVIVAVATDAHRLAGADAREIDVAGRVLMPGLCDAHVHVTAFTPDFALLGRTAPSYVTVRAQDILQGMIGRGFTTVRDAGGADWGLAKALAEGAIVGPRLLYCGHALSQTGGHADMRGPGQHNLDQCLCCAGLGQVCDGVPEMRRACREEIRKGATHLKLMVSGGVASPTDRIDSTQFALDELRAACEEAEAANIPVMAHAYTGRAAVRALEAGVSSIEHGNLIDQAAIDTLLRLDRWLVPTLATYHALAAEGVEAGMPAELNKKVYTVLEAGTEALRMAAKAGVKLVYGSDLLGTMQRHQLTEFAIRAVVQDPIDILRAATTQAAALFRMEDRIGAVRAGYLADLLIVDGDVLHSVAPWSAPEETIKMVMKDGEILVSR,soluble
10,TVDKRYLNDEHFIDPELVSQRAAPLTEADKQILADKSLGYRVLNLTVDTYNDATTSRWHRSIGGYHAAKLQRYQDLIEHQLSKGNREVVNMLNTKYIIVPGENNRPSPMSNPDAYGPAWPAGSIRWVGNANEEMMALDSNRLTRDIAVVDERFSSESLKRLPALTDSTASISLKEYAPNRQVYEAVSTQPMLGIFSEIYYPHGWTATIDNQAVPIIRANYILRALEVPAGRHKIEFRFDPKSLHITEAIAKT,not soluble
11,MGSDKIHHHHHHMTHQNSPLFLKSALRLYNRASFKASHKVIEEYSTSFSLSTWLLSPRIRNDIRNLYAVVRIADEIVDGTAHAAGCSTAKIEEILDAYEIAVLAAPQQRFNTDLVLQAYGETARRCDFEQEHVIAFFASMRKDLKANTHDPDSFTTYVYGSAEVIGLLCLSVFNQGRTISKKRLEIMQNGARSLGAAFQKINFLRDLAEDQQNLGRFYFPKTSQGTLTKEQKEDLIADIRQDLAIAHDAFPEIPVQARIGVISAYLLFQKLTDRIEATPTADLLRERIRVPLHIKLSTLARATMKGLSMSIYRKNS,not soluble
12,MSTGRTAITQPLRRLMRCSRALRRGTWPCSIGLQGIPIKSTPLQLRSCAQRLTFPGTSTGFLWEVWAMSYLRYVKIIGTVHVSPESVREVRETIIREKPDAIALELDYPRLLALLRRERLTLPQALKLGKMGIFGFILQELEMFFGRSFGESPGEEMIEAYKAAASLGIPVYLIDKPVNETLAGMLSSPPIEKLRFGIEVLASLLPGKLKELDYSYLMKEFREKFPHMYKVLVEERNLYMAINLMRIVDSLLEKKKKVKVVAVVGLGHKKGIERILNAHKPRAVKINSL,not soluble
13,MGHHHHHHSHSAAKGTGITRKKTFKEVANAVKISASLMGTVMAKRVKATILYGSETGRAQSYAQQLGRLFRKAFDPRVLCMDEYDVVSLEHETLVLVVTSTFGNGDPPENGESFAAALMEMSGPYN,not soluble
14,MDGTRTSLDIEEYSDTEVQKNQVLTLEEWQDKWVNGKTAFHQEQGHQLLKKHLDTFLKGKSGLRVFFPLCGKAVEMKWFADRGHSVVGVEISELGIQEFFTEQNLSYSEEPITEIPGTKVFKSSSGNISLYCCSIFDLPRTNIGKFDMIWDRGALVAINPGDRKCYADTMFSLLGKKFQYLLCVLSYDPTKHPGPPFYVPHAEIERLFGKICNIRRLEKVDAFEERHKSWGIDCLFEKLYLLTEK,not soluble
15,MSSEVEPPQKKKQPWLPDYIVENCLAHISRSYYPKLSLVSSPFALSSYPKSSTKRDIASTTEEYFFHVCLQLPKSPLPTWYTLWIKPDQIEKKKKINTFTGNTRLVQIPSSYHYPFDQVFIFNLYGAMRSSKAMVRPPSYGLVSMF,not soluble
16,MGSSHHHHHHGGTGENLYFQGGSGTAPPGSPAFCPPPAQYQYAYVPAASYVAASSCVGRGNNGGPLPYPLQPEAAPGYGEEQTSLLWNTRLFGLSTDVPSAMDSVMCIYCISSTHFNYLYRQQRGMFDPITAALLCFDVFWCMQLWPVVTPLSSITLHTLITRRELRKRYGLVGNDLFVKMDRLNADTAAATEAGETGAQAEEATTAEVESQPHRARDSDVTAEAAAAEPAGTGEAAAEVISVTPPATAPSEAAAPRTGESDVMAHTPRRVCHGLRS,not soluble
17,MGSDKIHHHHHHMSFLQEINLKLDVFEGPLDLLLHLIQKLEIDIYDIPITAVTEQYMSYIHAMQTLELEVAGEYLVMAATLMAIKSQMLLPKQELEIIDDEDFFEEEDPREALVAQLLEYRKFKYAATVLHEKEEERKLYYTKEPMDMDDYKEEDTTLPPNQINTIDLFLAFHAMLEKKKNRQPVETTVASDDVSIEEKISAISERMRQVQKGKAVSFDSFFDSYSKQEIVTTFMALLELMKTGAIYAEQENNYSEILLFNTETQQEDTTEVEETQ,not soluble
18,MNIMITKKAFDWYKRELGLKPGDAIRFFARYGGCSTVQKGFSLGMAKDELVDKPAAQTTVDGITFFIEESDQWYFDGRDLTVDLDEKSDEPVFLVH,not soluble
19,MGSDKIHHHHHHMRNQSKMPLVERLDAHAKSCPISLHVPGHKSGAIYPDAWQKFLKWDVTEITGMDDLHHPEDVILEAEELLAECYGSKKSYFLVNGTSGGSLAVIMATLKHGEKVLVPRDAHKSILHGIELAGGEPIFLTPATNKEVGVASGVTTELLEETLHNHPDIKLCIFTYPSYYGTTFNLHKCIQIAHDFGAVVFVDEAHGAHFLTSSEFPKSAVELGADVVVQSAHKTLPALTMGSYLHVVNDLPIFEKLPYYLQVFQTSSPSYLIMASLDAARKYAATYTAADVEAFWKMRARWIKWLTKNKFDVILPDDPLKIIVRKTGYTGYELQAIFEESSYFPELADESQVLLILPLIKKGIDFTPISRIHSPVKKEIAKEPYEMSAPFASGLALTYEEMHARATEFVLLDEATTRVSAETISLYPPGIPAIIRGESITEKHIRELKNIRTRHYQGGEKLAENYIRVFR,not soluble
20,GANDRYTETKRIVDSHCLHTICSSGRCPNMGECWGKGTATFMIGGDICTRSCKFCNTQTGRPHPLDANEPTHVAESIALMKLDHAVVTSVDRDDLPDLGAGHWAHTIREIKRLNPQTTIEVLIPDFQGRMELVDLVIEANPDIISHNMETVRRISPLVRSAANYDTSLQVIGHIARSGTKSKSGIMVGLGETPQEVETIMDDLLAVGCQILTIGQYLQPTHRHYPVAEYVTPQQFATYKTIGLEKGFSIVESAPLVRSSYHAEKHIR,not soluble
21,MGSDKIHHHHHHMPLTRERTDMSNLLSISDLSITFDNGPRVVDGLSFSIDKGQTLALVGESGSGKSVSALSILRLLDERHAAYPAGHILYKGEDLLQAQEKRLRQIRGRHISMIFQEPMTSLNPLHTVEKQISETLELHKGMRGPQARKRCLELLELVGIPAPETRLKSYPHQLSGGQKQRVMIAMALANEPDLLIADEPTTALDVTVQKQVLELLKSLQQKLGMAVLLITHDLSIVRRYADYVVVMERGKMVEQGATETLFRSPSHTYTRKLIDAEPPEHPLPAANGTETLMTVDNVNVHFPIRKTMLGKVKESFHAVQDASFELRAGETLGIVGESGSGKTTLGHALLKLTPSTGTFSLCGTELSALSQKAFRPWRRRVQIVFQDPFGSLSPRMSVEEIIREGLEIHEPGSSGQHEARVIQALKDVGLDPDARHRYPHEFSGGQRQRIAIARALVLQPDLMILDEPTSALDRTVQKQVIELLREIQARYRLSYIFISHDLAVVRALSHKLLVLRQGRIVEYGDAETIFREPQQPYTRELLNAAFFYQSTTN,not soluble
22,MSGDYRITLEELRYISVFHSITGVTAYRCIVDEENNRLIFLVSEGEAGRAIGRGGRLIKLLREALGKNIEVVEYSSDLERIVKNLFPGVKIESINVRERNGVKQVVIKVSEDDKGAAIGKGGKNVKRARLVLSKLFGVEKVVIR,soluble
